According to article PMC3609069 (Prion, 2012):

Molecular target: the molecule itself
Assay: […], pH 6.6

B1: Nup100f-Trp-7xHis (WT) (domain or fragment)
chain: GVFGQNNNQMQINGNNNNSLFGKANTFSNSASGGLFGQNNQQQGSGLFGQNSQTSGSSGLFGQNNQKQPNTFTQSNTGIGLFGQNNNQQQQSTGLFGAKPA
binding result: binds
